Test: soluble on expression in E. coli; label from the status in PepcDB or PDB records

Row | Sequence | soluble on expression in E. coli
1 | SNAMTQFAFVFPGQGSQSVGMLAEMAANYPIVEETFAEASAALGYDLWALTQQGPAEELNKTWQTQPALLTASVALWRVWQQQGGKMPALMAGHSLGEYSALVCAGVINFADAVRLVEMRGKFMQEAVPEGTGGMSAIIGLDDASIAKACEESAEGQVVSPVNFNSPGQVVIAGHKEAVERAGAACKAAGAKRALPLPVSVPSHCALMKPAADKLAVELAKITFSAPTVPVVNNVDVKCETDAAAIRDALVRQLYNPVQWTKSVEFIAAQGVEHLYEVGPGKVLTGLTKRIVDTLTASALNEPAALSAALTQ | soluble
2 | GSHMKNPYSNQIEREELILKYLPLVKAIATNIKKHLPEDVDIRDLISYGVIGLIKAVDNLSTENPKRAEAYIKLRIKGAIYDYLRSLDFGSRQVREKERRIKEVVEKLKEKLGREPTDEEVAKELGISTEELFKTLDKINFSYILSLEEVFRDFARDYSELIPSSTNVEEEVIKRELTEKVKEAVSKLPEREKLVIQLIFYEELPAKEVAKILETSVSRVSQLKAKALERLREMLSNPL | soluble
3 | MSRSDAGRPAPTGADADRRTMVLESAMATFARFGYRKTSMEEVARAAHISRPGLYFLFSSKESLFRAAVTQALHRDITAVERALADGDRPLPERLVEAFDHWAGRYVGPLTRDVATVIEANPGILGEVVEVLPRRFEELVTDAITVATGREGAVRIAQTMISASTGLKHQVGSRESYLERLTVAVGLLLR | not soluble
4 | SDESDLPSAMPAVPAFGVEERNMVSGVLTLAERSIRSIMTPRTDVSWVNIDDDAATIRQQLTAAPHSFFPVCRGSLDEVVGIGRAKDLVADLITEGRVRRNRLRDPIIVHESIGILRLMDTLKRSRGQLVLVADEFGAIEGLVTPIDVFEAIAGEFPDEDELPDIVAESE | soluble
5 | FSRAIDEHFVELDHMAMSAKLAVFRDELRGLGSEQQMRRREAELLRELARHPDLGLRLNGPDGNLWFERLPQPAHPGLPANRELGAPLEPGNDASPRLTVILDISHHQHFLQRMRQL | not soluble
6 | MKAQEVPSTTFTGGETVLTFKGGVHPPELKEWSKDKPIERAPLPQKVFVFLSNHAGNPAKPVVSPGDEVKTGQVIGEPEGFISAYLHSPVTGRVLEIKKILHPILGKPIEAIVIERTSDDEWVHIETGDFERMSKEEILEIIKKAGIVGLGGAMFPTHVKLSPPPEKKVDTLIVNGAECEPVLTIDHRLMLERAEDILQGILIMMKVLGVQKAVVGVESNKMDAYHNLKKVFKGYPVDVALLRTKYPQGAEKQLIYAITGRMVPRGGLPMDVGVVVQNVGTCVAVKEAVVDGKPLVERGMTVSGDAVKNQKNLIVRIGTPVKDVIDYCGGIDENTERVILGGPMMGISITNLDIPVMKGTSGITAFLPKKSRPQKPCIRCSECVQVCPMNLQPYLLYLLSTKRKYDEAVENGLMDCIECGSCTYTCPSKIEHVRYIKLAKTVYRATRRGRRAAALEHHHHHH | soluble
7 | MGSDKIHHHHHHMRYSPESLLAFITTVDAGSFSAAARRLHKSQSTISAAIANLEADLGLTLFDRAGHQPVLTLAGRKVLSHVQAILSASEELDELAIRLADHIEPRLTFVLSDIWQATHYEPVIQRFAHNFPDIEFECLVAEGDDVIDLLQMDRAHVGLLRAQTDYPPDIAAARLQVKTEMAVFVSVAHPLATEKTVTRSQLATVRQLYLNTYKRSDRLQPEGIVWSAPSYLMLLEMAQQGHGWSSLPRWLVAQYDRQKLVELPVSGWPQWIDVDVVWSKPHPPGPAGLWMIDNLLAQQESTPP | not soluble
8 | MGHHHHHHSHMANSAGSMANSAGSMPSSPLRVAVVCSSNQNRSMEAHNILSKRGFSVRSFGTGTHVKLPGPAPDKPNVYDFKTTYDQMYNDLLRKDKELYTQNGILHMLDRNKRIKPRPERFQNCKDLFDLILTCEERVYDQVVEDLNSREQETCQPVHVVNVDIQDNHEEATLGAFLICELCQCIQHTEDMENEIDELLQEFEEKSGRTFLHTVCFY | soluble
9 | QSFWEEIAPPFISNEPNVKYIIPNMGIDSKGTIYVTVTKRIQQGANYTSEQLGMYYRPLGDNEQWWKHDPYFDDKIVADIQTDAYGRVYVCTTSSRDQEYQLYINEQNEWRCIFKTSVSTYEHGMAVFRSSTGVTYIGTRHHIFASGVNDFEFNTIYEDSTPMSCRFAEATNSGTIYLALMHETTMSTTILTYQNGEFVDISESELSNSIIASMCSNKEGD | not soluble
10 | MSYAYLFKYIIIGDTGVGKSCLLLQFTDKRFQPVHDLTIGVEFGARMVTIDGKQIKLQIWDTAGQESFRSITRSYYRGAAGALLVYDITRRDTFNHLTSWLEDARQHSNSNMVIMLIGNKSDLEARREVKREEGEAFAREHGLVFMETSAKTAANVEEAFIDTAKEIYRKIQEGVFDINNEANGIKLGPQHSPSSPNSPGGNATGGLGGGSGCC | not soluble
11 | MSKAVIDTGVFVDYIDRKSPLHDVARNVINSIGQLEVLLPYVTIAEICYVTARVLREAGIEEWLEKSVEFVEWLQRHPAVEVVCSTELDVEAAKVKLRYGLALADCYVLALSKLKNCKAVFRKREKEMPDKVEKDFDVIFLEDYVGGDR | not soluble
12 | MGSDKIHHHHHHMSNQPHKPYGTPEPTYSGNKRSLILAGGGMRVAYQAGAIRALIESGLCFNHADGTSGGTMNLAMLLSGLSPIEMCDRWQTLNVKDFVSFIPLEKYLKAWDLLSMGDADGIIDRVFPHLGIDISKINASEGMQGTFNVCNFTHKTNEVIPHDRLDLDLLVAGISLPIFMPPVQKGDYLYMDSVWIKDVNLMEAVRRGADELWVLWCIGNSSEYQTGIFNQYVHMMELSANGAFFEECDRINEINQRILQGETVYGHTQPIKLHLIKPAYPLPLDPDYYLGNIDGATLVDMGYADAKQYLQTMSPAGLPFQPDVTRMHNNLPGMTFRESMAGAFVLNETDPIQGAAKGKAHNSSLSLQLTINICDLKRFLGDTTFTASIAGNISFANFGEHIPFKRGVFNLFAHDHNPGYKYITYELAFEHGNQDYYLVGKKELHNDPGFDLWQDMTTIYTYLHQGTDNNSPIIGSGILTLDVGDVAKCVSGWRITNAKSLTEKTTLLAEFGSFFWGNIWETYQP | not soluble
13 | MAHHHHHHMLRHCIPRLGIAKTVIKDNYSLSTLTNGLRVLTCDDGNGVTGMGLFMLNGAKFESPDNAGAAAVFEALPLRDNQIYTSREISQALSGLGNAFKVTNNKEALSVILMLPRYHQRDGLELLNAMCLHPTRNEEEFRIAKEKTHERTLLYDRDATSVCFELVHEAGWNGKGLGHSLNPKKEELDKLTLEKFTAFHSACTRPERTVLAATGVADHKSFAEEVEKLLRFNNADVAVQAMPQLQPGYYPYTGGSRLVHRTEAPESVNKFQEKSLSHVALFFQGVPINHPDYYNISVIQTLLGGGTSFSSGGPGKGMQTKLFREVLNREGFLHGLECITAWYSDGGLFGLYGTAPHQAVVSLLNVMIYQAASICQRVSPTHLEMAKNQLRSQLILLGEGREQLLSDMGFNLVVHNHIITATETMEGTRNITLDDLKRVCADMIKKPLTFTVYGDTTKMPSHESLEETVRKTYEKLN | not soluble
14 | VKPKGAFKAFTGEGQKLGSTAPQVLNTSSPAQQAENEAKASSSILINEAEPTTNIQIRLADGGRLVQKFNHSHRISDIRLFIVDARPAMAATSFVLMTTFPNKELADENQTLKEANLLNAVIVQRLT | soluble
15 | MGSDKIHHHHHHMKRVSVVILNWNGVDMLRKFIPSVMDNSVGEGIEICVADNASSDGSLEMLRSEFPVVRLIELDQNYGFAEGYNRALEQVDAEYVVLLNSDVEVTPHWLEPLLDYMDTHSGTVACQPKLLSWHNKEYFEYAGASGGFIDRYGYPFCRGRIFDVVEKDCGQYDTITEVMWVTGAALFIRLADYREVGGLDGHFFAHMEEIDLCWRLRSRGKKLVCIPQSVVYHVGGATLKKENPRKTFLNFRNNLLMLYKNLPDKELEHVLFIRGILDRVAALVFYLKKDRANARAVMQARREFEDIRYSFAASRIENMMKSTDEIIPERTHFSIVMKYYLLGKKHFSQLKLF | not soluble
16 | MGSDKIHHHHHHMRVLPFLLPLIPVLLATTITDLPELVVVTVATENTDGLKRLLESAKAFDINIEVLGLGEKWNGGDTRIEQGGGQKIRILSDWIEKYKDASDTMIMFVDAYDVVFNADSTTILRKFFEHYSEKRLLFGAEPFCWPDQSLAPEYPIVEFGKRFLNSGLFMGYGPEMHKILKLKSVEDKDDDQLYYTMIYLDEKLRKELNMDLDSMSKIFQNLNGVIEDVELQFKEDGTPEAYNAAYNTKPLIVHGNGPSKSHLNYLGNYLGNRWNSQLGCRTCGLEVKESEEVPLIALNLFISKPIPFIEEVLQKIAEFDYPKEKIALYIYNNQPFSIKNIQDFLQKHGKSYYTKRVINGVTEIGDREARNEAIEWNKARNVEFAFLMDGDAYFSEPKVIKDLIQYSKTYDVGIIAPMIGQPGKLFTNFWGAIAANGYYARSEDYMAIVKGNRVGYWNVPFITSAVLFNKEKLEAMKDAYSYNKNLDPDMSMCKFARDNGHFLYIDNEKYYGFLIVSDEYAETVTEGKWHPEMWQIFENRELWEARYIHPGYHKIMEPEHVVDQACPDVYDFPLMSERFCEELIEEMEGFGRWSDGSNNDKRLAGGYENVPTRDIHMNQVGFERQWLYFMDTYVRPVQEKTFIGYYHQPVESNMMFVVRYKPEEQPSLRPHHDASTFSIDIALNKKGRDYEGGGVRYIRYNCTVPADEVGYAMMFPGRLTHLHEGLATTKGTRYIMVSFINP | not soluble
17 | MVVFGTTFFNFDSFIGKTDSIEIIGKSVFPYCYHNILPLLNDSGRYSLGDARRPLHETAVLVEDVVHTQLINLLQQAAEVSQLRGARVITPEDLLFLMRKDKKKLRRLLKYMFIRDYKSKIVKGIDEDDLLEDKLSGSNNANKRQKIAQDFLNSIDQTGELLAMFEDDEIDEVKQERMERAERQTRIMDSAQYAEFCESRQLSFSKKASKFRDWLDCSSMEIKPNVVAMEILAYLAYETVAQLVDLALLVRQDMVTKAGDPFSHAISATFIQYHNSAESTAACGVEAHSDAIQPCHIREAIRRYSHRIGPLSPFTNAYRRNGMAFLAC | not soluble
18 | MTNKLTSLTIAFVGALSSMGAQAHGWVEYPSARQNTCYLDGGFWDNTIPNQACQAAYDESGAFPFVQRNEVAANVPNYQDMAHVQAIVRDGHLCSAGDAAKSGLNLGSLHWQKTAIALDANNQIELIFNATAPHNPSYWQFYLSNENYDPTVPLTWGDLVLIDTAGNVPVGEDKKYRIKITLPADRSDSAVLYTRWQREDAAGEGFYNCSDISFNGSGTTPPKPTDPVEPPQYSDLGYYINQGFGPVESGDTVRFRTFDSTGAETTDISLAITANNTSTWSAELAGQFNQLKNKEWFIGIWHQEMNHYMYDSNNIYANKVFAPTANVSYQLSLIKADITPPVEPPVEPSNPWDKTATYNAGDIVDHNGKAWVAQWWTKGEEPGTTGEWGVWR | not soluble
19 | MTDIAKLEPTAVWEHFQTLCDIPRPSKHEEQVRDYMKGWAELRGLETVVDKVGNLIIRKPATPGYEDRAGVVLQGHLDMVCQANSGTEHDFFKDPIRPVLKDGWLVAENTTLGADNGIGVALGMAVLSGDDVAHGPVEVLLTLDEEAGMGGALGLETGLLRGQYLINIDTEEWGEFYMGCAGGVDVNVTREYAVEAVPAGFQTASLTIKGLKGGHSGADIHLGRGNANKILIRLLRELEAETELRLSSLQGGTARNALSREAFAVVAYPTADAAKVAAKLDAFQALMRFELAGVDEGVSVLSEAAPAAGVLARADQDVILAALHAAPHGVKRMSQRVEGVVETSNNLGVVSVADGKVFANLMVRSLLDSGTWMLAREAESLFKLAAFKVEMEGGYPGWAPNPQSKLLALFKDVYRREFGAEAEVQVIHAGLECGILGSKYPNLDMVSFGPNIRGAHAPGERVEVESVGKAWQLLQAVLKAIPARLEHHHHHH | soluble
